From patent US20190029960A1, “Therapeutic Nanoparticles Having EGFR Ligands and Methods of Making and Using Same” (Pfizer Inc., priority 2016, published 2019) come the findings set out here.

One experiment has as its target T1, recombinant human EGFR (Homo sapiens, UniProt P00533).
T1 construct: Fc; purchased R&D Systems
In words: P2 competition ELISA (P2-Biotin dimer tracer, 50 nM EGF). The class given is binding.

Experiment [1] has as its target T2, Fc tagged recombinant human EGFR (rhEGFR-Fc) (Homo sapiens, UniProt P00533).
T2 construct: purchased R&D Systems 344-ER-050
The class given is binding. The note with it: for KD: Table 6, TGF fragments; for Result: Table 14, relative affinity compared to KD of parent P2 (FIG. 16); for KD (μM): Table 11, P2 Ala scan; for Relative Affinity: Table 11, relative to the KD of parent P2. As to the method: Surface plasmon resonance (SPR) binding studies were carried out on a Biacore T200 instrument (GE Healthcare). Approximately 10,000 RU of anti-Fc antibody (GE Healthcare, Cat #BR100839) was immobilized via amine coupling on each of flow cells 1 and 2 of a CM5 dextran-coated gold sensor chip (GE Healthcare, Cat #BR100530). […] The contact time and resulting amount of rhEGFR-Fc capture was varied based on the nature of the analyte, namely whether it was a peptide or nanoparticle.
Peptide binding assays were carried out in 10 mM PBS buffer supplemented with 0.05% surfactant P20 and 5% DMSO by volume, at 25° C. Peptides were injected over the rhEGFR-Fc surface for 60 s, followed by dissociation (buffer injection) for 60 s and regeneration with a 10 s pulse of 3M MgCl2. A fresh rhEGFR-Fc surface was generated for each concentration of each peptide tested. Peptide binding data was analyzed by fitting to a 1:1 Langmuir kinetic model to obtain the on-rate (ka), off-rate (kd) and/or equilibrium binding constant (KD) of the interaction.

Another experiment has as its target T3, rhEGFR-Fc (Homo sapiens, UniProt P00533).
T3 construct: purchased R&D Systems 344-ER-050
Kind of experiment: SPR nanoparticle binding, without EGF. Particulars: 1 mg/mL; for nanoparticle binding: FIG. 9C. On the procedure: Surface plasmon resonance (SPR) binding studies were carried out on a Biacore T200 instrument (GE Healthcare). Approximately 10,000 RU of anti-Fc antibody (GE Healthcare, Cat #BR100839) was immobilized via amine coupling on each of flow cells 1 and 2 of a CM5 dextran-coated gold sensor chip (GE Healthcare, Cat #BR100530). Fc tagged recombinant human EGFR (rhEGFR-Fc, R&D systems, Cat #344-ER-050) was reconstituted at 10 μg/mL in PBS and captured on flow cell 2. The contact time and resulting amount of rhEGFR-Fc capture was varied based on the nature of the analyte, namely whether it was a peptide or nanoparticle.
Nanoparticle binding assays were carried out in 10 mM HBS-EP+ buffer (GE Healthcare, Cat #BR100669) at 25° C. Nanoparticles were injected over the rh EGFR-Fc surface for 60 s, followed by dissociation for 60 s and regeneration with a 10 s pulse of 3M MgCl2. A fresh rhEGFR-Fc surface was generated for each concentration of each nanoparticle tested. Nanoparticle sensograms could not be fit accurately to the 1:1 Langmuir kinetic model due to the multivalent nature of the binding interaction between nanoparticle and target. Instead, nanoparticle binding data was presented as a plot of binding response vs. concentration at a single time point after the injection end.

*1 amine or outer side, *2 acyl side, *3 side chain or, on linkers, in order; H or OH if unused. Where a SMILES comes first, the peptide text is derived from it. Bridges are numbered along the chain shown (N, C = ends). Primed or numbered codes have the meaning given here. Side-chain parts run from the residue outwards. [ ]: non-standard residue; d: D form. The star is where a group is joined. Trp(5-OMe) = COc1ccc2[nH]cc(C[C@H](N)C(=O)O)c2c1; DBCO = C1#Cc2ccccc2N(*)Cc2ccccc21; Igl = N[C@H](C(=O)O)C1Cc2ccccc2C1; PEG5 = NCCOCCOCCOCCOCCOCCC(=O)O; Pen = CC(C)(S)[C@H](N)C(=O)O; Suc = O=C(CCC(=O)[*:2])[*:1]; DBCO′ = dibenzocyclooctyne; Orn = NCCC[C@H](N)C(=O)O; Pra = C#CC[C@H](N)C(=O)O; Dap = NC[C@H](N)C(=O)O; Acm = CC(=O)NC*

Usually IC50 stands for the concentration needed to halve the response being measured. As for `COc1ccc2[nH]cc(C[C@@H]3NC(=O)[C@H](C(C)C)NC(=O)[C@H](CCC(=O)O)NC(=O)[C@H](C4Cc5ccccc5C4)NC(=O)[C@H]([C@@H](C)O)NC(=O)[C@@H](NC(=O)[C@H](C)NC(=O)[C@H](CC(=O)O)NC(C)=O)C(C)(C)SSC(C)(C)[C@@H](C(=O)N[C@@H](CC(C)C)C(=O)N[C@@H](CCC(N)=O)C(=O)NCC(=O)NCC(=O)N[C@@H](CCCCNC(=O)CCOCCOCCOCCOCCOCCNC(=O)CCC(=O)N4Cc5ccccc5C#Cc5ccccc54)C(N)=O)NC(=O)[C@H](CCC(=O)O)NC(=O)[C@H](CCCNC(=N)N)NC(=O)CNC3=O)c2c1` [P2-2/55/102, Ac-DAPenT(2Ind)GEV(5MeO)WGREPenLQGGK(DBCO)-CONH2] (Ac-DA[Pen]T[Igl]EV[Trp(5-OMe)]GRE[Pen]LQGGK([PEG5-Suc-DBCO])-NH2; disulfide 3-12), the IC50 on recombinant human EGFR is 609 nM. Turning to `C#CC[C@H](NC(=O)CN)C(=O)NCC(=O)NCC(=O)N[C@@H](C)C(=O)N[C@@H](CC(=O)O)C(=O)N[C@@H](CC(C)C)C(=O)N[C@@H](CC(C)C)C(=O)N[C@@H](C)C(=O)N[C@H](C(=O)N[C@H](C(=O)N[C@@H](C)C(=O)N[C@@H](C)C(N)=O)C(C)C)C(C)C` [TGFf-4] (H-G[Pra]GGADLLAVVAA-NH2), the KD entry in experiment [1] is recorded as “No binding”. For `C#CC[C@H](NC(=O)CN)C(=O)NCC(=O)NCC(=O)N[C@@H](CCC(N)=O)C(=O)N[C@@H](CCC(=O)O)C(=O)N[C@@H](CC(=O)O)C(=O)N[C@@H](CCCCN)C(=O)N1CCC[C@H]1C(=O)N[C@@H](C)C(=O)N[C@@H](CSCNC(C)=O)C(=O)N[C@H](C(=O)N[C@@H](CS)C(=O)N[C@@H](Cc1c[nH]cn1)C(N)=O)C(C)C` [TGFf-8, H2N-G-Par-GG-QEDKPAC(Acm)VCH-CONH2] (H-G[Pra]GGQEDKPAC(Acm)VCH-NH2), the KD entry in experiment [1] is given as “No binding”. With “H2N-GDP-Dap-TWEVWGREDLQ-GG-Par-G-CONH2 (H-GDP[Dap]TWEVWGREDLQGG[Pra]G-NH2; lactam 4-13) [Peptide P2-59]”, in experiment [1], the Result entry was “No binding”. Still for that read-out and setting: with “H2N-GDPETWEVWGRE-Orn-LQ-GG-Par-G-CONH2 (H-GDPETWEVWGRE[Orn]LQGG[Pra]G-NH2; lactam 4-13; SMILES C#CC[C@H](NC(=O)CNC(=O)CNC(=O)[C@H](CCC(N)=O)NC(=O)[C@H](CC(C)C)NC(=O)[C@@H]1CCCNC(=O)CC[C@H](NC(=O)[C@@H]2CCCN2C(=O)[C@H](CC(=O)O)NC(=O)CN)C(=O)N[C@@H]([C@@H](C)O)C(=O)N[C@@H](Cc2c[nH]c3ccccc23)C(=O)N[C@@H](CCC(=O)O)C(=O)N[C@@H](C(C)C)C(=O)N[C@@H](Cc2c[nH]c3ccccc23)C(=O)NCC(=O)N[C@@H](CCCNC(=N)N)C(=O)N[C@@H](CCC(=O)O)C(=O)N1)C(=O)NCC(N)=O) [Peptide P2-68]” the entry was “No binding”. As to “Ac-SECFPLAPDWLSCILGGK(DBCO)-CONH2 (Ac-SECFPLAPDWLSCILGGK(DBCO′)-NH2; disulfide 3-13 (inferred)) [Peptide P1]”, in the experiment with rhEGFR-Fc (5% and 10% ligand density, FIG. 8B), the nanoparticle binding signal entry is reported as “comparable to EGF-NP”. Also, the nanoparticle binding result was “minimal binding” in the experiment with rhEGFR-Fc (5% ligand density) and “more robust binding” with rhEGFR-Fc (10% ligand density). `C#CC[C@H](NC(=O)CN)C(=O)NCC(=O)NCC(=O)N[C@@H](CO)C(=O)NCC(=O)N[C@@H](Cc1ccc(O)cc1)C(=O)N[C@H](C(=O)NCC(=O)N[C@@H](C)C(=O)N[C@@H](CCCNC(=N)N)C(=O)N[C@@H](CS)C(=O)N[C@@H](CCC(=O)O)C(=O)N[C@@H](Cc1c[nH]cn1)C(N)=O)C(C)C` [TGFf-6] (H-G[Pra]GGSGYVGARCEH-NH2): the KD result in experiment [1] is on record as “No binding”.

Consider “P2-12: P2 alanine scan analog, alanine at position 12 (Ac-DPCTWEVWGREALQ-NH2) [Peptide P2-12]”, for which, in experiment [1], the “KD (μM)” value is recorded as “nb” and the “Relative Affinity” value is listed as “nb”. Turning to `C#CC[C@H](NC(=O)CN)C(=O)NCC(=O)NCC(=O)N[C@@H](C)C(=O)N[C@@H](CSCNC(C)=O)C(=O)N[C@H](C(=O)N[C@@H](CS)C(=O)N[C@@H](Cc1c[nH]cn1)C(=O)N[C@@H](CO)C(=O)NCC(=O)N[C@@H](Cc1ccc(O)cc1)C(=O)N[C@H](C(=O)NCC(N)=O)C(C)C)C(C)C` [TGFf-7] (H-G[Pra]GGAC(Acm)VCHSGYVG-NH2), in experiment [1], the KD entry is “No binding”. As to `CC(=O)N[C@@H](CC(=O)O)C(=O)N[C@@H](C)C(=O)N[C@H]1CSSC[C@@H](C(=O)N[C@@H](CC(C)C)C(=O)N[C@@H](CCC(N)=O)C(=O)NCC(=O)NCC(=O)N[C@@H](CCCCNC(=O)CCOCCOCCOCCOCCOCCNC(=O)CCC(=O)N2Cc3ccccc3C#Cc3ccccc32)C(N)=O)NC(=O)[C@H](CCC(=O)O)NC(=O)[C@H](CCCNC(=N)N)NC(=O)CNC(=O)[C@H](Cc2c[nH]c3ccccc23)NC(=O)[C@H](C(C)C)NC(=O)[C@H](CCC(=O)O)NC(=O)[C@H](Cc2c[nH]c3ccccc23)NC(=O)[C@H]([C@@H](C)O)NC1=O` [Peptide P2-2], the “binding of free peptide to EGFR by SPR, in words” value in experiment [1] is recorded as “improved affinity relative to the parent peptide”. As to “H2N-GDP-Orn-TWEVWGREELQ-GG-Par-G-CONH2 (H-GDP[Orn]TWEVWGREELQGG[Pra]G-NH2; lactam 4-13; SMILES C#CC[C@H](NC(=O)CNC(=O)CNC(=O)[C@H](CCC(N)=O)NC(=O)[C@H](CC(C)C)NC(=O)[C@@H]1CCC(=O)NCCC[C@H](NC(=O)[C@@H]2CCCN2C(=O)[C@H](CC(=O)O)NC(=O)CN)C(=O)N[C@@H]([C@@H](C)O)C(=O)N[C@@H](Cc2c[nH]c3ccccc23)C(=O)N[C@@H](CCC(=O)O)C(=O)N[C@@H](C(C)C)C(=O)N[C@@H](Cc2c[nH]c3ccccc23)C(=O)NCC(=O)N[C@@H](CCCNC(=N)N)C(=O)N[C@@H](CCC(=O)O)C(=O)N1)C(=O)NCC(N)=O) [Peptide P2-61]”, the Result entry in experiment [1] is reported as “No binding”. Regarding “H2N-DPCTWEVFGRECLQ-GG-Par-G-CONH2 [Peptide P2-40]”, the “KD/P2 KD” value in experiment [1] (Table 13, point mutations) is “NS at 100 μM”. As to “H2N-G-Par-GG-CPDSHTQFC(Acm)FHGTC-CONH2 (H-G[Pra]GGCPDSHTQFC(Acm)FHGTC-NH2; disulfide 5-18; SMILES C#CC[C@H](NC(=O)CN)C(=O)NCC(=O)NCC(=O)N[C@H]1CSSC[C@@H](C(N)=O)NC(=O)[C@H]([C@@H](C)O)NC(=O)CNC(=O)[C@H](Cc2c[nH]cn2)NC(=O)[C@H](Cc2ccccc2)NC(=O)[C@H](CSCNC(C)=O)NC(=O)[C@H](Cc2ccccc2)NC(=O)[C@H](CCC(N)=O)NC(=O)[C@H]([C@@H](C)O)NC(=O)[C@H](Cc2c[nH]cn2)NC(=O)[C@H](CO)NC(=O)[C@H](CC(=O)O)NC(=O)[C@@H]2CCCN2C1=O) [TGFf-3]”, the KD entry in experiment [1] is reported as “Not soluble”. With “P2-3: P2 alanine scan analog, alanine at position 3 (Ac-DPATWEVWGRECLQ-NH2) [Peptide P2-3]”, in experiment [1], the “KD (μM)” value was “nb” and the “Relative Affinity” value was “nb”.

Take `COc1ccc2[nH]cc(C[C@@H]3NC(=O)[C@H](C(C)C)NC(=O)[C@H](CCC(=O)O)NC(=O)[C@H](C4Cc5ccccc5C4)NC(=O)[C@H]([C@@H](C)O)NC(=O)[C@@H](NC(=O)[C@@H]4CCCN4C(=O)[C@H](CC(=O)O)NC(C)=O)C(C)(C)SSC(C)(C)[C@@H](C(=O)N[C@@H](CC(C)C)C(=O)N[C@@H](CCC(N)=O)C(=O)NCC(=O)NCC(=O)N[C@@H](CCCCNC(=O)CCOCCOCCOCCOCCOCCNC(=O)CCC(=O)N4Cc5ccccc5C#Cc5ccccc54)C(N)=O)NC(=O)[C@H](CCC(=O)O)NC(=O)[C@H](CCCNC(=N)N)NC(=O)CNC3=O)c2c1` [P2-55/102, Ac-DPPenT(2Ind)GEV(5MeO)WGREPenLQGGK(DBCO)-CONH2] (Ac-DP[Pen]T[Igl]EV[Trp(5-OMe)]GRE[Pen]LQGGK([PEG5-Suc-DBCO])-NH2; disulfide 3-12): the IC50 at recombinant human EGFR is 829 nM.
